{"source": "paper PMC3896602", "about": "(mAbs, 2013)", "binders": {"B1": {"name": "anti-CXCL13 3B4 scFv-Fc fusion protein (Fc fusion, human)", "VH": "QVQLVQSGAEVKKPGSSVKVSCKASGGTFSSYAISWVRQAPGQGLEWMGGIIPIFGTANYAQKFQGRVTITADESTSTAYMELSSLRSEDTAVYYCAREPDYYDSSGYYPIDAFDIWGQGTTVTVSS", "VL": "QSALTQPASVSASPGQSITISCTGTSSDVGAYDWVSWYQQHPGKAPKLLIFDVNNRPSGVSHRFSGSKSGNTASLTISGLQAEDEADYYCSSYTRRDTYVFGTGTKVTVL"}, "B2": {"name": "anti-CXCL13 C04 scFv-Fc fusion protein (Fc fusion, human)", "VH": "B1 VH", "VL": "B1 VL with Y93A, T94G, R95I, R96I, D97S, T98V"}, "B3": {"name": "anti-CXCL13 A01 scFv-Fc fusion protein (Fc fusion, human)", "VH": "B1 VH", "VL": "B1 VL with S91A, Y93T, R95L, R96F"}, "B4": {"name": "anti-CXCL13 C07 scFv-Fc fusion protein (Fc fusion, human)", "VH": "B1 VH", "VL": "B1 VL with Y93P, R95F, R96T, D97E, T98P"}, "B5": {"name": "anti-CXCL13 H06 scFv-Fc fusion protein (Fc fusion, human)", "VH": "B1 VH", "VL": "B1 VL with S91A, Y93V, T94V, R95V, R96T"}, "B6": {"name": "anti-CXCL13 H08 scFv-Fc fusion protein (Fc fusion, human)", "VH": "B1 VH", "VL": "B1 VL with S91T, Y93V, R95V, R96E"}, "B7": {"name": "anti-CXCL13 E10 scFv-Fc fusion protein (Fc fusion, human)", "VH": "B1 VH", "VL": "B1 VL with S91A, Y93A, R95L, R96L"}, "B8": {"name": "human CXCL13 (natural protein)", "chain": "VLEVYYTSLRCRCVQESSVFIPRRFIDRIQILPRGNGCPRKEIIVWKKNKSIVCVDPQAEWIQRMMEVLRKRSSSTLPVPVFKRKIP"}}, "note": "Where a chain is given by its changes, count along the chain named."}
{"molecular_target": "human CXCL13 (Homo sapiens, UniProt O43927)", "assay": "SPR", "units": {"Kd": "nM", "koff": "s⁻¹", "kon": "M⁻¹ s⁻¹"}}
{"binder": "B1", "Kd": 0.371, "koff": 0.0121, "kon": "3.24e+07"}
{"binder": "B2", "Kd": 0.046, "koff": 0.0003, "kon": "6.22e+06"}
{"binder": "B3", "Kd": 0.0298, "koff": 0.0003, "kon": "9.28e+06"}
{"binder": "B4", "Kd": 0.0279, "koff": 0.0002, "kon": "8.03e+06"}
{"binder": "B5", "Kd": 0.0376, "koff": 0.0003, "kon": "7.54e+06"}
{"binder": "B6", "Kd": 0.0199, "koff": 0.0002, "kon": "8.53e+06"}
{"binder": "B7", "Kd": 0.0454, "koff": 0.0005, "kon": "9.81e+06"}
{"molecular_target": "IT1-Fc-A1 scFv-Fc-scFv bispecific molecule (human)", "assay": "SPR", "units": {"Kd": "nM"}}
{"binder": "B8", "Kd": 0.01}
{"molecular_target": "IT1-Fc-E10 scFv-Fc-scFv bispecific molecule (human)", "assay": "SPR", "units": {"Kd": "nM"}}
{"binder": "B8", "Kd": 0.067}
{"molecular_target": "IT1-Fc-3B4 scFv-Fc-scFv bispecific molecule (human)", "assay": "SPR", "units": {"Kd": "nM"}}
{"binder": "B8", "Kd": 0.8}
